Test results from the supplement of paper PMC9170038.

Columns and labels:
MS2 coat protein [1] = assay: apparent KD of MS2 coat protein, switch ON state; designed switch direction (-1 OFF switch, 1 ON switch): -1; higher = weaker reporter binding; settings: FMN input: 0 or 200 uM; Eterna round: R93 (includes R88 designs)
Procedure, shortened: (§1)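 With or without constant ligand, designed RNA switches in 100 mM Tris-HCl pH 7.5, 80 mM KCl and 4 mM MgCl2 were titrated with SNAP-549-labelled MS2 coat protein. Concentrations went up in twofold steps from 0.7 or 1.5 nM to 3 µM. The switches had been transcribed on-chip from Illumina sequencing clusters, and apparent KD is the per-design median of normalised cluster binding-curve fits.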

MS2 coat protein [2] = assay: apparent KD of MS2 coat protein, switch OFF state (with FMN for OFF switches, without FMN for ON switches); designed switch direction (-1 OFF switch, 1 ON switch): -1; higher = weaker reporter binding; settings: FMN input: 0 or 200 uM; Eterna round: R93 (includes R88 designs)
Procedure, shortened: as §1

| Sequence | apparent KD of MS2 coat protein (MS2 coat protein [1]) [nM] | apparent KD of MS2 coat protein (MS2 coat protein [2]) [nM] |
| --- | --- | --- |
| AAAAAACAUGAGGAUCACCCAUGUCAGGAUAUCCGGUUCUUGAAAAUCAAGAGGCGUUGGAGAAGGGACAUUCC [Chica Displaced 14 - Jieux - Exclusion 1] | 27.9 | 74.4 |
| AAAAAACAUGAGGAUCACCCAUGUGAGGAUAUCGAAAAGAAAAGAAAAGAAAGAAGAACGAGAAGGCACAAGAA [Sneferu] | 36.6 | 48 |
| AAAAAACAUGAGGAUCACCCAUGUGAGGAUAUCGAAAAGUCAAAGAAAAAGACGAAAACGAGAAGGCGCAAAAA [Inspired by Nando] | 23.7 | 26 |
| AAAAAACAUGAGGAUCACCCAUGUGAGGAUAUCGGAAACAAAAAAAACAAAAACAAAACGAGAAGGCACAAAAA [Amethyst 32] | 72.4 | 26.6 |
| AAAAAACAUGAGGAUCACCCAUGUGAGGAUAUGCAAAAAUAAAAUAAAAUAAUAAAAAGCAGAAGGCACAAAAA [Amethyst 76] | 20.5 | 26.4 |
| AAAAAACAUGAGGAUCACCCAUGUGAGGAUAUGCGAAAAUAAAAUAAAAUAAUAAAAAGCAGAAGGCACACCAA [58%, Sh'dynasty, 2] | 22 | 29 |
| AAAAAACAUGAGGAUCACCCAUGUGAGGAUAUGGAAAAGAAAAGAAAAGAAAGAAGAACCAGAAGGCACAAGAA [Khafre] | 30 | 37.9 |
| AAAAAACAUGAGGAUCACCCAUGUGAGGAUAUGUAAAAUAAAAUAAAAAUAAAAAAAAGCAGAAGGUAUAUGAA [Amethyst 66] | 31.4 | 40.6 |
| AAAAAACAUGAGGAUCACCCAUGUUAGGAUAUGCUAUGGAAAAUAAAAAAUAAACAUAGCAGAAGGAACAAAAA [Mat - Exclusion 1 - Eli mod - D30] | 21.2 | 32.6 |
| AAAAAAGCAGGAUAUACGUACAUGUCAAAAGACGUGAAGGGACAUGAGGAUCACCCAUGUAGAAGGGUUAAGAA [JL Stem Breaker 17] | 220 | 49.4 |
| AAAAAAGGAGGAUAUACGUACAUGUCAAAAGACGUGAAGGGACAUGAGGAUCACCCAUGUAGAAGGUUUAAAAA [JL Wide Open 31] | 49.1 | 18.3 |
| AAAAACAGAGGAUAUACAAAAUGAUGACGAAAGUCAUCAAAACAUGAGGAUCACCCAUGUAGAAGGCUGAAAAA [Mod of Meechl] | 24.2 | 20.2 |
| AAAAACAGAGGAUAUACAUGAGGAUCACCCAUGUAAAAAUGUAGAAGGCUGAAAAAAAAAAGAAGGAAAAAAAA [Meechl Ex3 R2 m0] | 21.6 | 23.2 |
| AAAAACUCAGGAUAUACAUGAGGAUCACCCAUGUAAAAAAAAAAAAAGGGAAAAAAAAGUAGAAGGGAGAAAAA [Semenre] | 25.5 | 37.2 |
| AAAAAGAGAGGAUAUGCAGGAGAAAAAAAAAAAAAAAAAAAACAUGAGGAUCACCCAUGUAGAAGGCUCAAAAA [Ecls2-II] | 28.4 | 15.7 |
| AAAAAGAGAGGAUAUGCAGGAGGUAAGGUCAAAAAAAAAAAACAUGAGGAUCACCCAUGUAGAAGGUUUAAAAA [Ecls2-VI] | 29.3 | 23.5 |
| AAAAAGCGAGGAUAUACAAAAGAGCGAAAGCUCAAAAGGAAACAUGAGGAUCACCCAUGUAGAAGGCGCAAGAA [John Whine] | 23.1 | 20.1 |
| AAAAAGCUAGGAUAUACGAAAAAAAAGGGUAAAAAAUAAAAACAUGAGGAUCACCCAUGUAGAAGGAGCAAAAA [Mat - Exclusion 2 - Tesla mod - D36] | 43.2 | 77.9 |
| AAAAAGGCAGGAUAUACAAAACAGGGAAACCUGAAAAGGAAACAUGAGGAUCACCCAUGUAGAAGGGCCAAGAA [Clint Eastwood] | 31 | 30.9 |
| AAAAAGGCAGGAUAUACAUGAGGAUCACCCAUGUUUUAAAAAAAAAAAAAAAAAAAAAGUAGAAGGGCCAAAAA [Ex 3.1] | 52.3 | 39.7 |

| Sequence | apparent KD of MS2 coat protein (MS2 coat protein [1]) [nM] | apparent KD of MS2 coat protein (MS2 coat protein [2]) [nM] |
| --- | --- | --- |
| AAAAAGGCAGGAUAUACGAAGCUAAGACAAAUAAGCAAGGGACAUGAGGAUCACCCAUGUAGAAGGGCCAAAAA [Exclusion 2-01... 60% 3] | 41.1 | 132 |
| AAAAAGGGAGGAUAUACAUGAGGAUCACCCAUGUAAAAAAAAAAAAAGGGAAAAAAAAGUAGAAGGCCCAAAAA [Apepi] | 50.1 | 52.6 |
| AAAAAGGGAGGAUAUACAUGAGGAUCACCCAUGUGUCAGACGAAAAAGAGUCUGAAGUGUAGAAGGCCCAAAAA [65%, Moding Exclusion3-cac2, 1] | 25.9 | 40.7 |
| AAAAAGGUAGGAUAUACAUGAGGAUCACCCAUGUAAAAAAAAACAAGAGAAAAAAAAUGUAGAAGGGCCAAAAA [Ex3 Malc#4] | 14.3 | 16.9 |
| AAAAAGGUAGGAUAUACAUGAGGAUCACCCAUGUAAAAAAAUGGAGAAAAAAACAAUUGUAGAAGGGCCAAAAA [Ex3 Malc#7] | 38.8 | 61.6 |
| AAAAAGGUAGGAUAUACGAAAAAAAAGGGUAAAAAAUAAAAACAUGAGGAUCACCCAUGUAGAAGGACCAAAAA [Mat - Exclusion 2 - Tesla mod - D41] | 30.5 | 36.7 |
| AAAAAGGUAGGAUAUACGAAAAAAAAGGGUAAAAUAAAUAAACAUGAGGAUCACCCAUGUAGAAGGACCAAAAA [Mat - Exclusion 2 - Tesla mod - D38] | 23.5 | 161 |
| AAAAAGGUAGGAUAUACGAGGAGAAAUAAUAAAUAAAUAAAACAUGAGGAUCACCCAUGUAGAAGGACCAAAAA [Ex 2 sub 2] | 27.6 | 26.9 |
| AAAAAGUCAGGAUAUACAGAAAAAAAAACGAAAAAAAAUCUGUAGAAGGGACAUGAGGAUCACCCAUGUAAAAA [Ex 4 May 12] | 47.6 | 33.6 |
| AAAAAGUCAGGAUAUACAUGAGGAUCACCCAUGUGAAAGAACGAAAAACGAAAAGCAAGUAGAAGGGACAAAAA [Ruby 78] | 13.1 | 14 |
| AAAAAGUCAGGAUAUAUGCGAAAAAUAAAAAAAAUAAAAACAUAGAAGGGACAUGAGGAUCACCCAUGUUAAAA [Ex 4 May 17] | 44.7 | 29.3 |
| AAAAAGUCAGGAUAUGUACAAAAUAAAAUAAAAAUAAAAGUACAGAAGGGACAUGAGGAUCACCCAUGUAAAAA [Ex 4 May 11] | 38.6 | 36.6 |
| AAAAAGUGAGGAUAUACAUGAGAAAAAAAAAUGUAAAAAAAACAUGAGGAUCACCCAUGUAGAAGGCACAAAAA [Ecxl-II] | 40.8 | 83.5 |
| AAAAAGUGAGGAUAUACAUGAGGAUCACCCAUGUAAUAAAAAAAAAGGGUGGAAGAAAGUAGAAGGCACCAAAA [Ex 3 May 48] | 48.2 | 142 |
| AAAAAGUGAGGAUAUACAUGAGGAUCACCCAUGUGUAUAAAAAAUUACACGAAAGAAUGUAGAAGGCACUAAAA [JL Mayanne Mod 3] | 18.2 | 42.8 |
| AAAAAGUGAGGAUAUACAUGAGGAUCACCCAUGUUAAAAAAAAAAAAAUAUAAAAAUAGUAGAAGGCACAAAAA [Default title] | 48.8 | 41.3 |
| AAAAAGUGAGGAUAUACAUGAGGAUCACCCAUGUUAAGGUAAUAUAUAUAUAUAUAUAGUAGAAGGCACAAAAA [Default title] | 32.4 | 31.5 |
| AAAAAGUGAGGAUAUACGGUGUGGAGUAGACACAACCAGGCGUAGAAGGCACAUGAGGAUCACCCAUGUCCAAA [EX4 Malc#15] | 25.9 | 29.1 |
| AAAAAGUGAGGAUAUGGUAAAAAAAAAAAAAAAAAGCACCUCCAGAAGGCACAUGAGGAUCACCCAUGUCGAAA [Jolly's Folly 6 - Jieux - Exclusion 4] | 24.4 | 31.3 |
| AAAAAGUGAGGAUAUGUCAAAAGUCACAAAAGUGACAAAAGACAGAAGGCACAUGAGGAUCACCCAUGUGAGGG [Mod of Eli - Late G + early G segment 4] | 110 | 103 |
